The source of these data is patent US6455314 (GENVEC, dated 2002).

Sequences and labels used below:
T1: coxsackievirus and adenovirus receptor (CAR) (UniProt P78310 20-365)
T1 sequence: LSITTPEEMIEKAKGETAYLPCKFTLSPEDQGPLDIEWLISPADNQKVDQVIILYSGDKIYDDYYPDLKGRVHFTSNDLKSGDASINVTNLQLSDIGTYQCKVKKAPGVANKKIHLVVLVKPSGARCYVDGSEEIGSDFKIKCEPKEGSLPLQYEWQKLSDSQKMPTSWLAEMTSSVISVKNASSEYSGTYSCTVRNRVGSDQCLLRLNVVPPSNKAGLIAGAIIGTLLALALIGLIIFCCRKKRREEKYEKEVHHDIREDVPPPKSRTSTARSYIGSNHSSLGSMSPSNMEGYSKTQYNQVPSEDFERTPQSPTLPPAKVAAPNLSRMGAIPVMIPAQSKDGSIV

B1: native Ad5 fiber knob (ligand)
chain: GAITVGNKNNDKLTLWTTPAPSPNCRLNAEKDAKLTLVLTKCGSQILATVSVLAVKGSLAPISGTVQSAHLIIRFDENGVLLNNSFLDPEYWNFRNGDLTEGTAYTNAVGFMPNLSAYPKSHGKTAKSNIVSQVYLNGDKTKPVTLTITLNGTQETGDTTPSAYSMSFSWDWSGHNYINEIFATSSYTFSYIAQE
B2: Ad5-1 mutant Ad5 fiber knob S408E (ligand)
chain: B1 chain with S22E
B3: Ad5-9 mutant Ad5 fiber knob EGTAY(487-491)GGGGG (ligand)
chain: B1 chain with E101G, T103G, A104G, Y105G
B4: Ad5-8 mutant Ad5 fiber knob Y(477)A (ligand)
chain: B1 chain with Y91A
B5: Ad5-2 mutant Ad5 fiber knob P409A (ligand)
chain: B1 chain with P23A
B6: Ad5-5 mutant Ad5 fiber knob K(420)A (ligand)
chain: B1 chain with K34A
B7: Ad5-4 mutant Ad5 fiber knob K(417)G (ligand)
chain: B1 chain with K31G
B8: Ad5-3 mutant Ad5 fiber knob RLNAEK(412-417)SLNGGG (ligand)
chain: B1 chain with R26S, A29G, E30G, K31G

Residue numbers refer to the chain shown, from its start. In names and notes the source's numbering stands. Where only a bound is given, the exact number is not on record here.

The target of the first assay is coxsackievirus and adenovirus receptor (CAR) (UniProt P78310). In words: cell-based or functional assay.
Molecule “Ad5-7 mutant Ad5 fiber knob, deletion DPEY(474-477) (from UniProt P11818 387-581) (ligand)” registered a Competition (from IC50 of blocking Ad5-lacZ transduction of A549 cells, β-galactosidase activity) below 0.1%.
Still for that read-out and setting: the same measure for “Ad5-6 mutant Ad5 fiber knob, deletion DPE(474-476) (from UniProt P11818 387-581) (ligand)”: below 20%.
Same read-out and setting: next, “Ad5-10 mutant Ad5 fiber knob, deletion TAYT(489-492) (from UniProt P11818 387-581) (ligand)”: below 0.1%; “F3K (native) (from UniProt P04501 119-319) (ligand)”: below 0.1%.

Another assay deals with T1, coxsackievirus and adenovirus receptor …. In words: cell-based or functional assay.
As to B1, the “Competition (from IC50 of blocking Ad5-lacZ transduction of A549 cells, β-galactosidase activity)” value amounted to 100%.
On the same count and under the same terms, the same measure for B2: below 0.1%; for B3: below 0.1%.
Still for that read-out and setting: next, B4: below 0.1%; B5: below 1%; B6: below 0.1%.
Still for that read-out and setting: next, B7: below 0.1%.
Regarding B8, the “Competition (from IC50 of blocking Ad5-lacZ transduction of A549 cells, β-galactosidase activity)” value was below 0.1%.
